Earlier results as cited in article PMC2875293.

Target: Sep15 (Homo sapiens) (UniProt O60613)
Sequence (O60613 32-165): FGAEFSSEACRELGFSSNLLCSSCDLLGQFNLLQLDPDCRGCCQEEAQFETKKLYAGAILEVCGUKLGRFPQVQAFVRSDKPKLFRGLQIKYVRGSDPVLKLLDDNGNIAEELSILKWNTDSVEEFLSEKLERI

Chain of GT1 (UDP-glucose:glycoprotein glucosyltransferase 1) (Q9NYU2 43-1555): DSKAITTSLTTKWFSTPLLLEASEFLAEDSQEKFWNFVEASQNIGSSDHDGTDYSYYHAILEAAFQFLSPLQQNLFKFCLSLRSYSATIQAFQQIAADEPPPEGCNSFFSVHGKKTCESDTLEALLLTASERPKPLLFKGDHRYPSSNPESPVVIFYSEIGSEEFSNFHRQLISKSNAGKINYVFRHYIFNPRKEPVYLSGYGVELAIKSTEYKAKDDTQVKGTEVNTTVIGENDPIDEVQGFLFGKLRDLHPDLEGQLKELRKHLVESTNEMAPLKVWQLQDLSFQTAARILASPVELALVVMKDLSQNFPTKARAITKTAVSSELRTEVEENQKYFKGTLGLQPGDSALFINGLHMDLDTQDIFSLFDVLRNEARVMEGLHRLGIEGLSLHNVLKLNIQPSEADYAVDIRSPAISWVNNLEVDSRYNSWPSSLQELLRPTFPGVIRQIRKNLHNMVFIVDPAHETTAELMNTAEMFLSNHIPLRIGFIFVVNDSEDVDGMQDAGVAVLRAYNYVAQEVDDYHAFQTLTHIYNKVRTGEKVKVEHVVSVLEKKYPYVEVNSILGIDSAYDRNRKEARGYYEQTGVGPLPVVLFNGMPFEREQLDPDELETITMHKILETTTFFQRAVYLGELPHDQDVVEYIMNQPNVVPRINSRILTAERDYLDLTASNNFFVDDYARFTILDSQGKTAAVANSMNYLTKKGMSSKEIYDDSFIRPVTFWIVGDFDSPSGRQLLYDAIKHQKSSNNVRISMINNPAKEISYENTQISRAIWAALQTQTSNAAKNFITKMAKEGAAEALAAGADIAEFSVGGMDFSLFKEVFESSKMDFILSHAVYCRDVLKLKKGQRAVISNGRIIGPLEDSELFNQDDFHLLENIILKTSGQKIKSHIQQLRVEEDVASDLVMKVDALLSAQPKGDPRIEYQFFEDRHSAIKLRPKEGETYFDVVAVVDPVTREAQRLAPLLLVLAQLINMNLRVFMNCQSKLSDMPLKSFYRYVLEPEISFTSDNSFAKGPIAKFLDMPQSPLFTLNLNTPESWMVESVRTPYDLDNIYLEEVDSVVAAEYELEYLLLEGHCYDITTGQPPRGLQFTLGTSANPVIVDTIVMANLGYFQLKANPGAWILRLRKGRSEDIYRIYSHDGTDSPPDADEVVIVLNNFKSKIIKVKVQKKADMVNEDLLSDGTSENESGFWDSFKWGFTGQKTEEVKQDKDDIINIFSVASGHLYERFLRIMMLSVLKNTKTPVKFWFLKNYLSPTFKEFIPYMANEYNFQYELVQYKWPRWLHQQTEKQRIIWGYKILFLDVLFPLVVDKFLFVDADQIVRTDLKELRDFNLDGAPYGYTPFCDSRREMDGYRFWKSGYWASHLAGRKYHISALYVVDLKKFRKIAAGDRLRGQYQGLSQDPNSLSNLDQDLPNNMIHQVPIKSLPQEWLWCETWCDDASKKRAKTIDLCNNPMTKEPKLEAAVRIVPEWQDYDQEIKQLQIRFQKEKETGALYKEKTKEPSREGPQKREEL

Kd: < 20 nM
Substance: GT1 (UDP-glucose:glycoprotein glucosyltransferase 1) (from UniProt Q9NYU2)
